The target of the assay is T1, RGS9-2 (mouse (endogenous in striatum), UniProt O54828-1 1-675).
T1 sequence (looked up): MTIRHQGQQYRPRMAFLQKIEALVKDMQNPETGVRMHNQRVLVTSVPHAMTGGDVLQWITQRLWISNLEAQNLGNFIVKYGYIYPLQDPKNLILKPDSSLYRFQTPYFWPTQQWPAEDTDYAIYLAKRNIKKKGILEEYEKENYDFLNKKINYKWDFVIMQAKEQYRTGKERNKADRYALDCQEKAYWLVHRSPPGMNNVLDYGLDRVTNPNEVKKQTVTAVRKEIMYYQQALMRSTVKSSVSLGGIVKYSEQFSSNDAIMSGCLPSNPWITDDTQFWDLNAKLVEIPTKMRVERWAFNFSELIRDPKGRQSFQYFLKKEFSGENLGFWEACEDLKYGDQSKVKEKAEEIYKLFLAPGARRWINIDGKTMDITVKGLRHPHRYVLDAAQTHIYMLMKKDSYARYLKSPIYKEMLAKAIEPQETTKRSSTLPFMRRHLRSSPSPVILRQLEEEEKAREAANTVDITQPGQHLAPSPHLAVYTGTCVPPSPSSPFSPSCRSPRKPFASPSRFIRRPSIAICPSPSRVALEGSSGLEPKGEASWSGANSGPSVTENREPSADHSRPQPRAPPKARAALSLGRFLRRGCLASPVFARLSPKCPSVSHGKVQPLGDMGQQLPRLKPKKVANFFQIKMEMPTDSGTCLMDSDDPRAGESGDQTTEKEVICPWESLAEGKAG
In words: co-IP.

B1: Gβ5 (natural protein, mouse (endogenous in striatum), UniProt P62881-2 1-353, looked up)
chain: MATDGLHENETLASLKSEAESLKGKLEEERAKLHDVELHQVAERVEALGQFVMKTRRTLKGHGNKVLCMDWCKDKRRIVSSSQDGKVIVWDSFTTNKEHAVTMPCTWVMACAYAPSGCAIACGGLDNKCSVYPLTFDKNENMAAKKKSVAMHTNYLSACSFTNSDMQILTASGDGTCALWDVESGQLLQSFHGHGADVLCLDLAPSETGNTFVSGGCDKKAMVWDMRSGQCVQAFETHESDVNSVRYYPSGDAFASGSDDATCRLYDLRADREVAIYSKESIIFGASSVDFSLSGRLLFAGYNDYTINVWDVLKGSRVSILFGHENRVSTLRVSPDGTAFCSGSWDHTLRVWA
Turning to B1, the “co-IP signal after chronic morphine, % compared with vehicle-treated mice” value stood at 171%.

B2: Gαq (natural protein, mouse (endogenous in striatum), UniProt P21279 1-359, looked up)
chain: MTLESIMACCLSEEAKEARRINDEIERQLRRDKRDARRELKLLLLGTGESGKSTFIKQMRIIHGSGYSDEDKRGFTKLVYQNIFTAMQAMIRAMDTLKIPYKYEHNKAHAQLVREVDVEKVSAFENPYVDAIKSLWNDPGIQECYDRRREYQLSDSTKYYLNDLDRVADPSYLPTQQDVLRVRVPTTGIIEYPFDLQSVIFRMVDVGGQRSERRKWIHCFENVTSIMFLVALSEYDQVLVESDNENRMEESKALFRTIITYPWFQNSSVILFLNKKDLLEEKIMYSHLVDYFPEYDGPQRDAQAAREFILKMFVDLNPDSDKIIYSHFTCATDTENIRFVFAAVKDTILQLNLKEYNLV
In the case of B2, the “co-IP signal after chronic morphine, % compared with vehicle-treated mice” value was found to be 216%.

The values above are taken from PMC3412365 (The Journal of neuroscience : the official journal of the …, 2011).
